Experimental data published in publication PMC7642358 (2020).

What was measured:
[1] = molecular target: T1, SARS-CoV-2 spike receptor-binding domain (2019-nCoV RBD-SD1, residues 319–566) (SARS-CoV-2, UniProt P0DTC2 319-566, chemically biotinylated with NHS-PEG4-Biotin for selection, ELISA and BLI); experiment: BLI
[2] = molecular target: T1, SARS-CoV-2 spike receptor-binding …; experiment: BLI; remark: listed apart in the source

B1: Sb23-Fc (Sb23 fused to the Fc domain from human IgG) (Fc fusion)
chain: QVQLVESGGGLVQAGGSLRLSCAASGFPVESENMHWYRQAPGKEREWVAAIYSTGGWTLYADSVKGRFTISRDNAKNTVYLQMNSLKPEDTAVYYCAVQVGYWYEGQGTQVTVS
koff [1]: 7.1e-05 s⁻¹
Kd [2]: 0.225 nM
